The values below come from patent publication US20200223906A1 (Adimab, published 2020).

Assay [1] has as its target T1, RSV F protein of subtype A (strain A2) on recombinant mKate-RSV (respiratory syncytial virus subtype A …, UniProt P03420 26-574). The assay can be described thus: cell-based or functional assay.
In assay [2] the target is human metapneumovirus (HMPV) F protein on GFP-expressing hMPV recombinant virus (NL/1/00, A1 sublineage) (human metapneumovirus). In words: cell-based or functional assay.
For assay [3], the target named is RSV F protein of subtype B (18537) on recombinant mKate-RSV (respiratory syncytial virus subtype B …, UniProt P13843 26-574). In words: cell-based or functional assay.
Assay [4] has as its target T1, RSV F protein of subtype A (strain A2) …. In words: cell-based or functional assay. This is another data set of the same source.
Assay [5] has as its target T2, RSV F ectodomain stabilized in the postfusion conformation (F ΔFP), subtype B (respiratory syncytial virus subtype B, UniProt P13843 26-109; P13843 147-524).
T2 construct: extracellular domain; Trimer; also called Postfusion subtype B
In words: BLI (Octet), IgG on AHQ sensor, 100 nM antigen. (In BLI a coated tip is dipped into the sample, and binding shifts an interference pattern.)

Assay [6] concerns the target T3, RSV F ectodomain stabilized in the postfusion conformation (F ΔFP), subtype A (respiratory syncytial virus subtype A, UniProt P03420 26-109; P03420 147-524).
T3 construct: extracellular domain; Trimer; also called Postfusion subtype A
In words: BLI (Octet), IgG on AHQ sensor, 100 nM antigen.

B1: ADI-18992 (antibody, V domains shown)
VH: QVQLVQSGAEVKKPGASVKVSCKASGYIFTGYFIHWVRQAPGQGLEWMGVINPRGGSTSYAQKFQGRVAVSRDTSTTTVYMELNSLRSEDTAVYYCARAPSHDEWVAISRNNDVVGFDAWGQGTLVTVSS
VL: QSVLTQPPSVSGAPGQRVTISCTGGSSNIGADYDVHWYQQPPGTAPKLLIFANNNRPSGVPGRFSGSKSGTSASLAITGLQAEDEADYYCQSYDSSLSAWVFGGGTKLTVL
notes: full-length IgG; also called Antibody Number 340
B1: the “RSV-A2 IC50” value in assay [1] turned out to be 2.5 µg/mL. In assay [2], the “HMPV-A1 IC50” value worked out at 6.1 µg/mL. Also, in assay [3], the “Neut IC50 subtype B” value stood at 5.69 µg/mL. Further, in assay [4], the “Neut IC50 subtype A” value came out at 2.55 µg/mL. In addition, the Kd (as a rule, the free concentration of one partner at which half of the binding sites on the other are occupied at equilibrium, for simple one-to-one binding) in assay [5] was 0.907 nM.

B2: ADI-19007 (antibody, V domains shown)
VH: QVQLVQSGGGLVQPGGSLRLSCAASGFTFSQSPMSWVRQAPGKGLEWVSGISTGGTNTYYADSVKGRFTISRDNSKNTLYLQMTSLRVGDTAVYYCAKESLDFGSGSYNWFDTWGQGTLVTVSS
VL: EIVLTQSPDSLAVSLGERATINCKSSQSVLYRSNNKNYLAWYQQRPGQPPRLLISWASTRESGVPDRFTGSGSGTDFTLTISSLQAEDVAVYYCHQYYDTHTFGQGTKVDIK
notes: full-length IgG
As for B2, the “Neut IC50 subtype B” value in assay [3] came out at 0.37 µg/mL. For the same molecule, the “Neut IC50 subtype A” value in assay [4] was 0.208 µg/mL. Also, the Kd in assay [5] stood at 0.457 nM; in assay [6], 0.969 nM.

B3: ADI-19000 (antibody, V domains shown)
VH: EVQLVESGAEVKKPGASVKVSCKASGYTFTTYDINWVRQATGRGLEWMGWMTPDSGSTGYPQNFQGRVTMTRNTSISTAYMELSNLRSEDTAVYYCVQMDHCRSTSCSEGNWFDTWGQGTLVTVSS
VL: QPGLTQPPSVSAAPRQRVTISCSGSSSNIGTNAVNWYQQLPGKAPKLLIYSDNLMPSGVSARFSGSKSGTSASLAISGLQSEDEADYYCAAWDDSLNVWVFGGGTKLTVL
notes: full-length IgG; also called Antibody Number 348
B3: the “Neut IC50 subtype B” value in assay [3] was 0.129 µg/mL. For the same molecule, in assay [4], the “Neut IC50 subtype A” value stood at 0.037 µg/mL. The Kd in assay [5] worked out at 0.128 nM; in assay [6], 0.175 nM.
